# Assay results reported in the supplement of paper PMC6755084.
# B1: minF1; a variant is named by its letters at N, in order (parent)
# chain: GAGACCGCAACTGAAAAGTTGTTANNNNAANGNNNGGTTGAATTTCTGCACGTAGAAGCAAAAGGC
# B2: minF1; a variant is named by its letters at N, in order (parent)
# chain: GAGACCGCAACTGAAAAGTTGTTATCAGAAATGNNNGGNTNNNTTTCTGCACGTAGAAGCAAAAGGC
# B3: minF1; a variant is named by its letters at N, in order (parent)
# chain: GAGACCGCAACTGAAAAGTTGTTNNNNAANNNNNGGNTNAATTTCTGCACGTAGAAGCAAAAGGC
# Variants of: B1
# Assay: fraction ligated after 30 min (ligated reads / total reads); higher = more ligase activity
# Settings: with F1*subA RNA substrate (template-directed ligation), 42 °C
# How it was run: (§1)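 Fraction ligated for every variant was calculated as the share of total reads that came from ligated RNA. Minimized ligase ribozyme variants were made from oligo-pool templates by PCR amplification, T7 transcription and gel purification. After gel separation of ligated and unligated RNAs, reverse transcription with barcoded primers and MiSeq sequencing followed. Only core bases at quality ≥30 passed filtering.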
row,Variant,fraction ligated
1,AGAAGATG T23A A24T A30T,0.00339
2,CAGATGAT,0.0096
3,CAGATGAG,0.00664
4,TCAATGTG,0.00417
5,TCGATGAG,0.00384
6,TCGATGAT,0.0366
7,CAGAGATG A30T,0.0134
8,TCAGAGTG,0.0048
9,CAGAGATG,0.00233

# Variants of: B2
# Assay: as above
# Settings: with F1*subA RNA substrate (template-directed ligation), 42 °C
# How it was run: as §1
row,Variant,fraction ligated
1,ATGTGAA A27G G28A A31T T32G,0.733
2,ATGTGAA T32G,0.0137
3,GATGTCC,0.00223
4,GATGTCG,0.00256
5,GATGTCT,0.00139
6,GATGTCA,0.0146
7,ATGTGAA A24T T25C C26A A27G G28A A31T T32G,0.0261
8,ATGTGAA T23A A24T T25C C26A A27G G28A A31T T32G,0.228
9,ATGTGAA T25C C26A A27G G28A A31T T32G,0.0163
10,ATGTGAA A31T T32G,0.65
11,GATGTGG,0.00509
12,GATGTGT,0.00586
13,GATGTGC,0.00735
14,GATGTGA,0.844
15,GATGTTA,0.0473
16,GATGTTG,0.00218
17,GATGTTT,0.000955
18,GATGTTC,0.00331
19,ATGTGAA C26A A27G G28A A31T T32G,0.0728
20,ATGTGAA,0.0281
21,ATGTGAA G28A A31T T32G,0.52
22,GATGTAC,0.00239
23,GATGTAG,0.00461
24,GATGTAA,0.175
25,GATGTAT,0.00414
26,GAGTGAA,0.00382
27,GTGTGAA,0.0136
28,GATTGAA,0.023

# Variants of: B3
# Assay: as above
# Settings: with F1*subA RNA substrate (template-directed ligation), 42 °C
# How it was run: as §1
row,Variant,fraction ligated
1,TAGAGGATGTG T23A A29T,0.00989
2,TCAGATGGAGT T23A G35T A40G,0.0397
3,CAGATGGTGTG,0.00442
4,TCAGAGATGTG,0.00161
5,ACAGATGGGTG,0.00695
6,TCAGATATGTG,0.000901
7,TCAGATGGAGT G35T T38G A40T,0.00171
8,AAGATGGTGTG,0.00306
9,TCAGAGGTGTG,0.00137
10,TAGATGGTGTG T23A,0.00156
11,TCAGAGGATGT T23A A40G,0.00415
12,ACAGATGGAGT,0.00252
13,ACAGATGGAGT G35T T38G A40T A41G,0.000565
14,TCAAGGATGTG T23A A29T,0.00621
15,TCAGATGGAGT T23A A40G,0.0153
16,TAAAGGATGTG A29T,0.00359
17,TCAATGATGTG T23A,0.00128
18,TCAAGGATGTG A29T,0.00599
19,CAGAGGATGTG A29T,0.00872
20,TCAATGGAGTG,0.00287
21,TCAATGGATGT T23A A40G,0.00963
22,TCAAGGATGTG T23A,0.00271
23,AAGATGGATGT A40G,0.00604
24,CAGATGGATGT T23A,0.00559
25,TCAGAGGATGT,0.00375
26,TCAGATGGATG,0.00236

row,Variant,fraction ligated
1,ACAGAGATGTG,0.0018
2,AAGATGGATTG,0.00494
3,TCAGATGGAGT,0.00402
4,CAGATGATGTG,0.00402
5,TAGATGGATTG T23A,0.00337
6,ACAGATGGTGT A40G,0.00805
7,TCAGAGGTGTG T23A,0.0038
8,TCAATGGATGT,0.00761
9,ACAAGGATGTG,0.00477
10,TCAATGGATTG,0.0203
11,ACAGATATGTG,0.000749
12,TCAATGGTGTG,0.00313
13,ACAGAGGTGTG,0.00336
14,TAGATGGAGTG,0.0023
15,TCAGATGGAGT T23A G35T,0.0188
16,ACAGATGAGTG,0.00298
17,ACAGATGGTGT,0.002
18,TCAGATGGAGT G35T T38G A40T A41G,0.000378
19,ACAGAGGATTG,0.0039
20,TCAGATGGAGT A40G,0.00532
21,TAGATGGATGT T23A,0.00257
22,CAGATGGAGTG,0.00344
23,ACAGATGATGT,0.00327
24,TAGATGGATTG,0.00552
25,TCAGAGGAGTG,0.00402
26,AAGATGATGTG,0.0055

row,Variant,fraction ligated
1,TCAGAGGAGTG T23A,0
2,TCAGATGGGTG,0.00281
3,TAGATGGAGTG T23A,0
4,CAGAGGATGTG,0.00332
5,CAGAGGATGTG T23A A29T,0.00891
6,TCAGATGATGT,0.00279
7,ACAGATGGAGT A40G,0.00662
8,TCAGAGATGTG T23A,0.00422
9,TCAGAGGATGT T23A,0.00218
10,TCAGAGGATTG T23A,0.00302
11,TCAATGGATTG T23A,0.0162
12,ACAGAGGATGT,0.00215
13,TCAGATATGTG T23A,0.000828
14,TCAGATGGTGT A40G,0.00521
15,TCAAGGATGTG,0.00272
16,ACAGATGATTG,0.00209
17,TAGAGGATGTG,0.00132
18,TCAGATGGAGT T23A G35T T38G A40T,0.00248
19,TCAGATGGAGT T23A G35T T38G A40T A41G,0.000947
20,ACAGATGGAGT G35T T38G A40T,0.00236
21,TCAGATGGATG T23A,0.00344
22,TCAATGGATGT T23A,0.00522
23,ACAGATGATGT A40G,0.00654
24,TAGATGGATGT,0.00222
25,CAGATGGTGTG T23A,0.0045
26,CAGATGATGTG T23A,0.00284

row,Variant,fraction ligated
1,CAAAGGATGTG T23A A29T,0.00472
2,ACAGATGGAGT G35T A40G,0.0182
3,TCAGATGGAGT G35T,0.0137
4,CAGATGGATTG T23A,0.00704
5,ACAATGGATTG,0.0118
6,TCAGATGGAGT T23A,0.00368
7,TAGATGGTGTG,0.0039
8,TCAATGGTGTG T23A,0.00318
9,TCAATGGAGTG T23A,0.00168
10,TCAATGATGTG,0.00347
11,ACAATGGAGTG,0.00318
12,TAGAGGATGTG A29T,0.0101
13,ACAGAGGATGT A40G,0.00295
14,CAGAGGATGTG T23A,0.00547
15,CAAAGGATGTG A29T,0.00429
16,TCAGAGGATGT A40G,0.00564
17,TCAGATGATTG,0.00341
18,ACAATGGATGT,0.00325
19,CAGATGGAGTG T23A,0.00336
20,TAGATGGATGT A40G,0.00383
21,TAGAGGATGTG T23A,0.00277
22,ACAATGATGTG,0.00381
23,AAGATGGAGTG,0.000852
24,TCAGATGATGT A40G,0.011
25,ACAGATGGATG,0.000541
26,TCAGATGAGTG T23A,0.00316

row,Variant,fraction ligated
1,AAGAGGATGTG A29T,0.00554
2,TCAGATGATGT T23A A40G,0.0104
3,TAGATGATGTG,0.00308
4,TCAGAGGATTG,0.00228
5,AAGAGGATGTG,0.00256
6,ACAGAGGAGTG,0.00131
7,TCAGATGATGT T23A,0.00365
8,CAGATGGATGT,0.00272
9,TCAGATGATTG T23A,0.00216
10,AAGATGGATGT,0.0029
11,ACAATGGATGT A40G,0.0105
12,TCAGATGGAGT G35T A40G,0.0226
13,CAGATGGATGT A40G,0.0159
14,ACAGATGGAGT G35T,0.014
15,ACAATGGTGTG,0.00249
16,CAGATGGATGT T23A A40G,0.0214
17,TCAGATGGTGT,0.00178
18,TCAGATGGGTG T23A,0.00356
19,TAAAGGATGTG T23A A29T,0.00526
20,TAGATGGATGT T23A A40G,0.00768
21,TCAGATGAGTG,0.00318
22,TAGATGATGTG T23A,0.00371
23,AAAAGGATGTG A29T,0.00415
24,CAGATGGATTG,0.00607
25,ACAAGGATGTG A29T,0.00252
26,TCAATGGATGT A40G,0.0177
